Reference: patent US20140289906A1, “Compositions Having Dicamba Decarboxylase Activity and Methods of Use” (priority 2013, published 2014)

B1: 82 (protein, listed as Rhodopseudomonas palustris)
chain: MAQNETPVIAIEEHYWDPEMVARFPAGENASPFSTLLTELGDVRLRAMDEAGIDVQVLSHGAPAAQKLPPDVAPELTRRVNDRLAEACARFPNRFAAFAALPTPAPEAAARELERCVRDLGFKGAMIHGLTNGLFIDDKRFWPIFEVAEKLDVPIYLHPSVPHADVTRYYYDDYAREFPTVIRPAWGFTVETATQAIRLILSRALESYPRLQIILGHLGETLPFLLWRINQALARPGQTPLDFRKQFCDHFHVTTSGFFSTPALICTMLELGIDRIMFAVDYPYVVNRDGTDWVQQLQISPDDKRKLVGGNARRLLKL
B2: 74 (protein, listed as Ramlibacter tataouinensis)
chain: MATVIDVHTHMFTTKWLELLKKEGGQYNIQTRPDGQQEIFRGNTPVVIPQKGHFDWKLRIQHMDQAGIDVSVVSLTCPNVYWGGEDVSVRAAREANDNVAQAQTAYPDRIRWFASLPWEYMATVIDVHTHMFTTKWLELLKKEGGQYNIQTRPDGQQEIFRGNTPVVIPQKGHFDWKLRIQHMDQAGIDVSVVSLTCPNVYWGGEDVSVRAAREANDNVAQAQTAYPDRIRWFASLPWEYPQRAVEELERSCAQGAAGVMVLANVAGRSLTDPLFAPVWAEIDRRALPVLVHPTDPPGVDLMDMTKFDLSWSVGFMFDTTLAITRMIFEGFFDRYPNLRIIASHGGGTLPYLVGRFEKGDEVELASRRQMKRKPTDYLRHIHYDCITYNLGALQYLISVVGAGQVMFGTDWPHWVHDTRGAFANTAQLPQEQTRAVRGANAQRLFKL
B3: 77 (protein)
chain: MALIDLHAHAPHPGYYNQHPHWGPFFERHEDGDVKLRVGDWILTLGSPERKALVRAGKGPTVEEYQARWADPKVRLAGMDAAGQNAQVVSVPSHCYMYWAEKEFSVPFATKVNDTFAEYCSAAPDRLMFWAHAALNAPEQAALELRRACTELGAKGLVAGGANFGGLEFDSPELDPVWKVLCDLDLPMFIHGYNQSVTWGKKANDDRYETTAIVGMQYDETRCFWNLVCGGVLDRFPGLKVYITHGGGYVPYQLGRLAQCNGNLDVAHNKKPVLEYLKNNFYFDVELHEVPMRQALIDIIGADRVLYGSNFGGSDAVRHDLTEGLRLSDDDLQKIRWKNACKLLHLDPAKIGEPAKKQAVSA
modifications: Burkholderia xenovorans
B4: 80 (protein, listed as Cordyceps militaris)
chain: MAAASTPVVVDIHTHMYPPSYIAMLEKRQTIPLVRTFPQADEPRLILLSSELAALDAALADPAAKLPGRPLSTHFASLAQKMHFMDTNGIRVSVISLANPWFDFLAPDEAPGIADAVNAEFSDMCAQHVGRLFFFAALPLSAPVDAVKASIERVKNLKYCRGIILGTSGLGKGLDDPHLLPVFEAVADAKLLVFLHPHYGLPNEVYGPRSEEYGHVLPLALGFPMETTIAVARMYMAGVFDHVRNLQMLLAHSGGTLPFLAGRIESCIVHDGHLVKTGKVPKDRRTIWTVLKEQIYLDAVIYSEVGLQAAIASSGADRLMFGTDHPFFPPIEEDVQGPWDSSRLNAQAVIKAVGEGSSDAAAVMGLNAVRVLSLKAE
B5: 86 (protein, listed as Sphingopyxis alaskensis)
chain: MALGASVASREASAQMAKAPMRKIATEEAFATPELAKAWLEIARSEPNSSLDIPTGILSIFDNPRPGSNQDRFRRQLLDVDAERIRDMDEAGVDMQLLSVTIPGVQIFEPARAGELAVTTNDHLAAAIARRPTRFAGLACFAPHDPVQATREMERAVNALGLKGFIVNSHTQDLYLDDPRFAPVLEAAQSLDCPIYLHPRAPSNGMAAPFRDYSMGGSIWGFGVEAGTHAVRMILSGVFDRYPRLRIVLGHMGEALPFWMWRLDHMAARRAKDGRMKPLSLAPSEYFKRNFAVTTSGFESPDVLDLVIKVAGIENIMWAIDYPYESSRDAVTFIEGADLTASQRASIFHRNAVRHFRLS
B6: 90 (protein)
chain: MAATIDRVLYLGNATQRRYTSATVSVPRIFGKVALEEHVGTSIWAKYNLTPPANAVVGVLNRPPTLPNTLDTIARLDDINGRLSSMNHSGIGYVIVSLSSPGIQGVHDTALAIKFSTDINDELYLKYANAYPDKFAFFATVPMQDPVAAASELERAVSLLGAKGAAINGYTDIGPPGNSTTRYLDDPINAPFWSKVAALNVPIYLHPRAPPPSQQLVYNYPNNSLSAYPGLVTGGFAYGAETAVHALRLMLSGLFDTHPNIQIILGHAAEGLPFLIHRSDTQLAAEVPGTNGPYKRPLRYYLRNNFYATLSGVRRLSTTQCTLAEMGEERVLFSVDYPFQSNEDAADWFDGVEGMSVETKRKVARGNARRLFNLTVDLDERQIDGDFM
modifications: Pyrenophora tritici-repentis
B7: 75 (protein, listed as Ectocarpus siliculosus)
chain: MAKIDSYTHFACPAFMDHLEAESGHPMVFRGLFSSIPELSDIDLRIRYMDEHGIDVHCLVPLPWLECEPGLHADEGKALEACRIANDEMARVVARFPDRLIGVALIPTTTEQAMIQETTRAVKELGMAGVALFVGPTAKPPDMACFEGLYRTCEELGAVVWMHPCRPQSYADYDSYKGEGSKHQIWNTFGWIYDTSVAMVHIALAGVFRRYPGLKVVTHHHGAMVPFFTARFDTQRRNFQEVEGDDLLEDLRLFYCDTATFGESAANIQQAIDFFGKSQVLFGTDTPMDMGTRGMFTRTTIASVEALGAAPEDKESFYAGNVLDMLGERFAGISGARGAVAARPKGDSTRIAASL
B8: 6 (protein)
chain: MAEILSPEESIYYSKLSNDILAEGIKKNPTRFRGFAALPTPDPIQAAMELERCIKLGGFVGAIINGHINGHYLDEIQFDPILEAADALDVPLYIHPAVPPKAIIDTYYKMNDTYAQTVMVSGGWGWHIETGVHVLRLISSGVFDRHPNLKIVIGHLGEGLPFFMHRLNNAIGGNLKKSYSTYLKENIYYTISGFNDPDLFQFVLKKVGENNIMFSSDYPFNFPKREVELFNELNISEEVREKISFKNAERILKI
modifications: Treponema brennaborense
B9: 76 (protein, listed as Polymorphum gilvum)
chain: MAKKIDIFNHIWPEPFFKALIAHIGEMTDITMRSGAVPMMTNLDRRFEVMDMFGPDYMQVLSLASPPLEKLADPAKALELSRIGSDSLAELCQRYPERFPAFIGTAPLSNPAAVVGECRRAIEDLGAAGMQIFTNVAGKPLDLAEFEPFFEYMASAGKPVWLHPARGEAFADYQTEKRSEYEIWWTFGWPYETSAAMARLVFSRMFDKYPGLKVITHHAGGMVPFFEGRVGPGWDQMGARTTDRDLAAVRKALKRPHLDYFKEFYADTASFGSRKAIEHAIEFFGEDRVLFASDAPFDPEGGPMYIRETMRCIDSLDLTDAQRRKIYHGNATALLGLSL
B10: 84 (protein, listed as Mycobacterium rhodesiae)
chain: MASLIALEEHYAWDPASEGNVVATWLRANNGVAYDRLYDRGPLRIEQMDAAGIDFQILSLFDPGVQDEVDAVRAVDLARRANDDLAESVRANPSRFGGFATLATQQPDAAVAEFDRAVTELGLVGGLINGHCQGRYLDDPAYEALFSRAEALGAPIYLHPTTPHPAVMDAWFAPYVGDGLHLASWGFAAETGTHVLRLIYSGLFDKFPRLQMIIGHLGEMLPFAAYRIDRYYGLGGGGTGHTLQHLPSDYLRNNFHVTTSGNFCSPALDCTLDVMGADRVMFSVDYPMDDNQTGADFLASYPMDDTNRRKVASENALRLFGDRIPAALRN
B11: 91 (protein, listed as Botryotinia fuckeliana)
chain: MASFVCNFGKAALATLLLTPSISAADYTPQETVLNSGRPTFYDASTSIPGKIALEEHVGNDLLNGLYTVPYYPNTNEPQYSDSVYIADVGEKMLDIPSRIANMDAANISISVLTFGGPGIQGVFNATYATYAAGYVNDYLYKNYKNNANYTGRFEFWCSNALQEPSKAATELERCVKELGGVGSFVGGYTNNGGINGTANDIVYLDDPSMEPFLEKVVELDVPIYLHPRMPAPSQLLSVKGYEFLGSSPWGFSSETGAHALRLMVSGTLDKYPTLKIVLGHCGEGLPFFLPRIDQRLRHFKKELFNNTLTMEEYWLRNFYVTTAGVQDAGTLVDTIKRTGEDRVMFSVDYPFEDTVEIAGWFDRLEMNTLTKTKLAYENAKALLKLTCYVDAEKRPRIFNKHHVDDIIKHTHSPCIWTLFH
B12: 83 (protein, listed as Mycobacterium rhodesiae)
chain: MALIALEEHYAWSPVSAGNVVGSWLETHNVTAYQRLYDRGPLRLEQMDAAGIDFQILSLFDPGVQDDDDTARAVENARRANDDLAETVRAAPDRFGGFATLAPQDPDAAAAELERAVGELGLVGGLINGHTHGRYLDDPAYLGLFECAQRLGVPIYLHPTTPHPAVMDAWFAPYVKDGLHLASWGFAAETGTHALRLIYSGLFDTFPRLQMILGHLGEMLPYAAYRIDRYYGLGGGDDGGRLARLPSEYLRDNFHVTTSGNFNPVAFACALDVMGPDRLMFSVDYPMDDNVTGAEFLRNLEVDDDVRRKVAGENALQLFGDKIPRR
B13: 78 (protein, listed as Marinobacter adhaerens)
chain: MALIDLHAHAPHPDYYDQHPHWGPAFELQSDGDIKLRVGHWVLSLGAPERKQALREAHARGETLDVQEYMAKWRDPEHRLASMDAAGQNAQVLSVPSHCYMYWAEPEFGVPFAKKVNDSLAEYCSAAPDRLMFWAHAPLNVPKEAAKEIRRACTELGAKGLVAGGSNFGGLEFDSPEMDPVWEALCDLDLPMFVHGYNQSVTWGEEANTDRYETTAIVGMNYDESKCFWYMINGGVFDRFPNLKVYITHGGGFVPYQLGRMAQTNPNLDTYHNKKPFLEYLKNFYFDVELHEVPMRQAMVEVIGADRVLYGSNFGGSDAVRHDLTDDLKLSQEDLDKIRWKNACDLLHLDPNKLGKVRG
B14: 85 (protein, listed as Maritimibacter alkaliphilus)
chain: MAADRKPGLVSVEEGFMIPEVVAELSRIAGGVPSMKSGPIAGPFMDDLLDIGKGRVARMDADGVAVQILALAAPGVQKFDPDTALALSRLTNDRLAEAIAAHPARFGGLAAAPPQAAREGAKELDRAITTLGLNGLIVNSHTNDLYLDDPSFWPLLEAAEALDVPVYLHPREPAAGIEGGLMAMTGFTVGWAYAVETGTHLLRMIAAGVFDRFPRLRIVLGHLGEMIPFMLDRIDNRYPFEMGVTGAKPLPRKPSDYFRDHVTVATSGMNFNAPMRAAIEVLGADKVMFAADYPMERQDEEVAKFAALDLTPDERKRIGEDNARRVFGL

Experiment: 14C assay: 14CO2 capture from [14C]-carboxyl-labeled dicamba with IPTG-induced recombinant E. coli cells
Conditions: for Dicamba Decarboxylase Activity: IPTG-induced recombinant E. coli cells, 14CO2 from [14C]-carboxyl-labeled dicamba; for Enzymatic Detection level: dicamba decarboxylation activity

Row | Molecule | Dicamba Decarboxylase Activity | Enzymatic Detection level
1 | B1 | Low | Low
2 | B2 | Low | Low
3 | B3 | No | No
4 | B4 | Low | Low
5 | B5 | Low | Low
6 | B6 | Low | Low
7 | B7 | Low | Low
8 | B8 | No | No
9 | B9 | No | No
10 | B10 | Low | Low
11 | B11 | Low | Low
12 | B12 | Low | Low
13 | B13 | Low | Low
14 | B14 | Low | Low
